The values below come from PMC9092175.

Assay [1] addresses plant virus-based immunosorbent nanoparticle (VIN): assembled turnip vein clearing virus (TVCV) virion of coat protein Fc-affinity ligand fusion (CP-FcAL) (turnip vein clearing virus | S. aureus) (UniProt Q88922). Put plainly: pull-down; magnetic separation: VIN covalently coupled to superparamagnetic particles (VIN-MP), hIgG in PBS; eluted with 0.2 M glycine buffer pH 2.5.
Assay [2] has the same target. Put plainly: co-sedimentation; affinity sedimentation: purified VIN mixed in free suspension with a pre-purified target; VIN-target complex pelleted (12,000 x g, 10 min for hIgG; 20,000 x g, 20 min for the Fc-fusions); eluted with 0.1 M glycine-HCl pH 2.5; SDS-PAGE and Western blot. On the technique in general: In western blotting, separated proteins are transferred to a membrane and probed.

In assay [1], “human immunoglobulin G (hIgG) (antibody)” returned a binding capacity per mass of magnetic particle (µg hIgG/mg MP) of over 1000; a hIgG binding/elution load per mass of VIN (mg hIgG/mg VIN) of 0.3; a hIgG elution recovery per mass of VIN, VIN-MP relative to uncoupled VIN of 35 to 55%; a recovery of the feed hIgG of 42%. Moreover, the recovery of the feed hIgG in assay [2] is 95%.
